Tested on: Escherichia coli TOP10
Assay: shrunken log2 fold change of peptide-encoding DNA abundance (4.5 h post-induction vs induction); higher = less antimicrobial activity (less host growth inhibition)
Details: time post-induction: 4.5 h; library: site-saturation at positions 5, 18, 19, 20
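Further: peptides expressed intracellularly from a pBAD plasmid library in pooled LB shake-flask culture, induced with 0.3% L-arabinose, DNA abundance read by NGS, three biological replicates, DESeq2 with apeglm shrinkage.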

Sequence	shrunken log2 fold change
RRIRKRPPRLPRPRPRPENKPRP	0.528
RRIRKRPPRLPRPRPRPERDPRP	0.621
RRIRKRPPRLPRPRPRPERMPRP	0.0818
RRIRKRPPRLPRPRPRPEVPPRP	0.539
RRIRKRPPRLPRPRPRPEVVPRP	0.016
RRIRKRPPRLPRPRPRPEWPPRP	0.273
RRIRKRPPRLPRPRPRPEYLPRP	-0.0659
RRIRKRPPRLPRPRPRPFAEPRP	0.266
RRIRKRPPRLPRPRPRPFAMPRP	0.359
RRIRKRPPRLPRPRPRPFCFPRP	1.24
RRIRKRPPRLPRPRPRPFDPPRP	-0.145
RRIRKRPPRLPRPRPRPFEEPRP	0.148
RRIRKRPPRLPRPRPRPFEKPRP	-0.045
RRIRKRPPRLPRPRPRPFEQPRP	0.0483
RRIRKRPPRLPRPRPRPFESPRP	0.0457
RRIRKRPPRLPRPRPRPFGCPRP	0.0495
RRIRKRPPRLPRPRPRPFGFPRP	-0.137
RRIRKRPPRLPRPRPRPFHEPRP	-0.154
RRIRKRPPRLPRPRPRPFHLPRP	0.0215
RRIRKRPPRLPRPRPRPFKIPRP	0.00571
RRIRKRPPRLPRPRPRPFKSPRP	-0.294
RRIRKRPPRLPRPRPRPFKTPRP	0.427
RRIRKRPPRLPRPRPRPFKYPRP	-0.517
RRIRKRPPRLPRPRPRPFLFPRP	-0.0622
RRIRKRPPRLPRPRPRPFMGPRP	0.00448

Sequence	shrunken log2 fold change
RRIRKRPPRLPRPRPRPFMNPRP	-0.0366
RRIRKRPPRLPRPRPRPFNCPRP	0.0153
RRIRKRPPRLPRPRPRPFQPPRP	0.0366
RRIRKRPPRLPRPRPRPFTGPRP	0.0735
RRIRKRPPRLPRPRPRPFVEPRP	0.0241
RRIRKRPPRLPRPRPRPFVTPRP	-0.0435
RRIRKRPPRLPRPRPRPFWKPRP	0.0342
RRIRKRPPRLPRPRPRPFYIPRP	-0.44
RRIRKRPPRLPRPRPRPFYSPRP	0.00762
RRIRKRPPRLPRPRPRPFYVPRP	-0.0997
RRIRKRPPRLPRPRPRPGAPPRP	0.85
RRIRKRPPRLPRPRPRPGCIPRP	0.424
RRIRKRPPRLPRPRPRPGCLPRP	0.646
RRIRKRPPRLPRPRPRPGDFPRP	0.18
RRIRKRPPRLPRPRPRPGDHPRP	0.014
RRIRKRPPRLPRPRPRPGDKPRP	0.0976
RRIRKRPPRLPRPRPRPGDNPRP	0.046
RRIRKRPPRLPRPRPRPGEKPRP	0.015
RRIRKRPPRLPRPRPRPGGCPRP	0.809
RRIRKRPPRLPRPRPRPGGHPRP	0.0505
RRIRKRPPRLPRPRPRPGGQPRP	0.108
RRIRKRPPRLPRPRPRPGHTPRP	0.272
RRIRKRPPRLPRPRPRPGIYPRP	0.107
RRIRKRPPRLPRPRPRPGKDPRP	0.173
RRIRKRPPRLPRPRPRPGMHPRP	0.213

Sequence	shrunken log2 fold change
RRIRKRPPRLPRPRPRPGMKPRP	0.516
RRIRKRPPRLPRPRPRPGNTPRP	-0.0331
RRIRKRPPRLPRPRPRPGPAPRP	1.05
RRIRKRPPRLPRPRPRPGPEPRP	1.1
RRIRKRPPRLPRPRPRPGPWPRP	0.63
RRIRKRPPRLPRPRPRPGQQPRP	0.0114
RRIRKRPPRLPRPRPRPGSWPRP	0.571
RRIRKRPPRLPRPRPRPGSYPRP	-0.00588
RRIRKRPPRLPRPRPRPGTMPRP	0.0526
RRIRKRPPRLPRPRPRPGTWPRP	0.315
RRIRKRPPRLPRPRPRPGVNPRP	0.213
RRIRKRPPRLPRPRPRPGWTPRP	0.438
RRIRKRPPRLPRPRPRPGYKPRP	0.236
RRIRKRPPRLPRPRPRPHAKPRP	0.226
RRIRKRPPRLPRPRPRPHAWPRP	0.897
RRIRKRPPRLPRPRPRPHCIPRP	-0.165
RRIRKRPPRLPRPRPRPHFAPRP	0.336
RRIRKRPPRLPRPRPRPHFYPRP	-0.0034
RRIRKRPPRLPRPRPRPHGNPRP	-0.0306
RRIRKRPPRLPRPRPRPHHHPRP	-0.208
RRIRKRPPRLPRPRPRPHHIPRP	-0.165
RRIRKRPPRLPRPRPRPHLHPRP	0.265
RRIRKRPPRLPRPRPRPHMEPRP	0.0155
RRIRKRPPRLPRPRPRPHMWPRP	-0.174
RRIRKRPPRLPRPRPRPHNEPRP	0.323

Sequence	shrunken log2 fold change
RRIRKRPPRLPRPRPRPHQLPRP	0.0824
RRIRKRPPRLPRPRPRPHQTPRP	0.202
RRIRKRPPRLPRPRPRPHRWPRP	0.00588
RRIRKRPPRLPRPRPRPHTFPRP	-0.309
RRIRKRPPRLPRPRPRPHTLPRP	-0.168
RRIRKRPPRLPRPRPRPHVKPRP	-0.258
RRIRKRPPRLPRPRPRPHVRPRP	-0.0167
RRIRKRPPRLPRPRPRPHWCPRP	1.98
RRIRKRPPRLPRPRPRPHWTPRP	-0.0277
RRIRKRPPRLPRPRPRPHYAPRP	-0.0144
RRIRKRPPRLPRPRPRPIAGPRP	-0.0506
RRIRKRPPRLPRPRPRPIANPRP	0.339
RRIRKRPPRLPRPRPRPIASPRP	0.0246
RRIRKRPPRLPRPRPRPICAPRP	0.363
RRIRKRPPRLPRPRPRPICQPRP	-0.0166
RRIRKRPPRLPRPRPRPICSPRP	-9.46e-05
RRIRKRPPRLPRPRPRPIDFPRP	0.131
RRIRKRPPRLPRPRPRPIEHPRP	0.332
RRIRKRPPRLPRPRPRPIEKPRP	0.694
RRIRKRPPRLPRPRPRPIGHPRP	0.0336
RRIRKRPPRLPRPRPRPIGLPRP	0.0815
RRIRKRPPRLPRPRPRPIHHPRP	0.0077
RRIRKRPPRLPRPRPRPIHPPRP	0.0728
RRIRKRPPRLPRPRPRPIIKPRP	0.232
RRIRKRPPRLPRPRPRPILLPRP	-0.313

Sequence	shrunken log2 fold change
RRIRKRPPRLPRPRPRPIMNPRP	-0.119
RRIRKRPPRLPRPRPRPIMYPRP	0.0532
RRIRKRPPRLPRPRPRPINWPRP	0.0577
RRIRKRPPRLPRPRPRPIRLPRP	-0.0783
RRIRKRPPRLPRPRPRPIRWPRP	0.0019
RRIRKRPPRLPRPRPRPISAPRP	0.164
RRIRKRPPRLPRPRPRPITFPRP	-0.0147
RRIRKRPPRLPRPRPRPITVPRP	0.0944
RRIRKRPPRLPRPRPRPIVMPRP	0.0102
RRIRKRPPRLPRPRPRPIWYPRP	-0.26
RRIRKRPPRLPRPRPRPIYDPRP	-0.0349
RRIRKRPPRLPRPRPRPIYLPRP	-0.305
RRIRKRPPRLPRPRPRPKACPRP	-0.00804
RRIRKRPPRLPRPRPRPKAHPRP	0.242
RRIRKRPPRLPRPRPRPKATPRP	0.0944
RRIRKRPPRLPRPRPRPKCRPRP	0.175
RRIRKRPPRLPRPRPRPKDCPRP	-0.0519
RRIRKRPPRLPRPRPRPKEWPRP	0.222
RRIRKRPPRLPRPRPRPKFCPRP	0.0649
RRIRKRPPRLPRPRPRPKFLPRP	0.119
RRIRKRPPRLPRPRPRPKFWPRP	0.798
RRIRKRPPRLPRPRPRPKGFPRP	0.0233
RRIRKRPPRLPRPRPRPKGKPRP	0.302
RRIRKRPPRLPRPRPRPKGNPRP	0.325
RRIRKRPPRLPRPRPRPKHAPRP	-0.0322

Sequence	shrunken log2 fold change
RRIRKRPPRLPRPRPRPKHVPRP	0.473
RRIRKRPPRLPRPRPRPKIHPRP	-0.152
RRIRKRPPRLPRPRPRPKINPRP	-0.116
RRIRKRPPRLPRPRPRPKKFPRP	0.0892
RRIRKRPPRLPRPRPRPKKNPRP	0.555
RRIRKRPPRLPRPRPRPKLHPRP	0.129
RRIRKRPPRLPRPRPRPKNEPRP	0.345
RRIRKRPPRLPRPRPRPKPKPRP	0.464
RRIRKRPPRLPRPRPRPKPLPRP	0.687
RRIRKRPPRLPRPRPRPKPPPRP	0.76
RRIRKRPPRLPRPRPRPKQRPRP	0.393
RRIRKRPPRLPRPRPRPKQVPRP	-0.176
RRIRKRPPRLPRPRPRPKRTPRP	1.7
RRIRKRPPRLPRPRPRPKTCPRP	0.209
RRIRKRPPRLPRPRPRPKTFPRP	-0.124
RRIRKRPPRLPRPRPRPKTQPRP	0.422
RRIRKRPPRLPRPRPRPKYIPRP	-0.0449
RRIRKRPPRLPRPRPRPLDGPRP	0.105
RRIRKRPPRLPRPRPRPLDKPRP	-0.0705
RRIRKRPPRLPRPRPRPLDQPRP	0.257
RRIRKRPPRLPRPRPRPLEDPRP	-0.0129
RRIRKRPPRLPRPRPRPLETPRP	0.361
RRIRKRPPRLPRPRPRPLFEPRP	0.513
RRIRKRPPRLPRPRPRPLHKPRP	0.342
RRIRKRPPRLPRPRPRPLHNPRP	0.0882

Reference: the supplement of paper PMC9112550, “Optimization of the antimicrobial peptide Bac7 by deep mutational scanning” (BMC Biology, 2022)
